T1: rat IL-11 (rat, UniProt Q99MF5 22-199)
T1 construct: Invigate recombinant protein; also called rIL11
T1 sequence: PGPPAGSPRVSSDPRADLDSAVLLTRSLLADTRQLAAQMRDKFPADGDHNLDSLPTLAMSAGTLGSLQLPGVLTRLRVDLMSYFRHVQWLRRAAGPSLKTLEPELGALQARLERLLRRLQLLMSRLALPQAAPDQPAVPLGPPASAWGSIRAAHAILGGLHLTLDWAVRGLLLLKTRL

T2: human IL-11 (human, UniProt P20809 22-199)
T2 construct: Invigate recombinant protein; biotinylated when immobilized in the Di-complex ELISA; also called hIL11; hIL-11
T2 sequence: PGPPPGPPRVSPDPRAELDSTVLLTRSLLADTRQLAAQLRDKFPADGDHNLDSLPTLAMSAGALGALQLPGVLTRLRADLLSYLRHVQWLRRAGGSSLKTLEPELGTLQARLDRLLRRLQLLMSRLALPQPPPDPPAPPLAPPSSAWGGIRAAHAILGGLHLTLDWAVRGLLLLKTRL

T3: cynomolgus IL-11 (cynomolgus, UniProt P20808 22-199)
T3 construct: Invigate recombinant protein; also called cIL11; Macaca IL-11
T3 sequence: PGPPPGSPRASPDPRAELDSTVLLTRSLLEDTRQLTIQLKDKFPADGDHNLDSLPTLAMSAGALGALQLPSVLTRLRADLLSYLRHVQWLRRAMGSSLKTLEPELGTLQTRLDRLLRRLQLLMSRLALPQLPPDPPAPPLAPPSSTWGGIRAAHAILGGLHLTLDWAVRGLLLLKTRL

T4: human IL2Ra (human, UniProt P01589 22-240, limits assumed)
T4 construct: coated on the ELISA plate; also called IL-2 receptor alpha
T4 sequence (looked up): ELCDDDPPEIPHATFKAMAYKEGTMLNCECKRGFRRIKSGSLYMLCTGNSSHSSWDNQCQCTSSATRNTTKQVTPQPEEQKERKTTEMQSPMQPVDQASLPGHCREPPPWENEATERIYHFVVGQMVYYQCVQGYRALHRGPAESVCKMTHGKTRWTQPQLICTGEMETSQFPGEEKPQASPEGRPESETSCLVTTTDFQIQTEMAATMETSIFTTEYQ


Assays:
[1] = target: T1, rat IL-11; assay: SPR (Biacore), 37 C, antibody captured via anti-Fc, IL-11 as analyte
Experimental: (§1) To assess the binding kinetics and affinity of anti-IL-11 bispecific antibodies as well as their species cross-reactivity profile, binding assays were conducted using surface plasmon resonance (SPR). […] Antibodies were captured either via anti-human Fc IgGs (“Human antibody capture kit”, Order No. BR100839, Cytiva) or via anti-mouse Fc IgGs (“Mouse antibody capture kit, Order No. BR100383, Cytiva) covalently amine coupled to a Series S CM5 sensor chip (Cytiva) depending on the isotype. The amine coupling was carried out according to the manufacturer's instructions using 1-ethyl-3-(3-dimethylaminopropyl) carbodiimide hydrochloride (EDC), N-hydroxysuccinimide (NHS) and ethanolamine HCl, pH 8.5 (“Amine Coupling Kit” BR-1000-50, Cytiva.). Human, mouse, cynomolgus or rat IL-11 was used as analyte at several dilutions within the concentration range from 0.05-200 nM. For binding assays with only one concentration 200 nM IL-11 was used. The sensor surface was regenerated with glycine pH 1.7 after each antigen injection. Obtained sensorgrams were double referenced (subtraction of reference flow cell signal and buffer injection) and were fitted to a 1:1 Langmuir binding model to derive kinetic data using the Biacore T200 Evaluation software or the Biacore Insight software.
(§2) If no value is reported, there was either no binding or very low binding and multiphasic binding behavior.

[2] = target: T2, human IL-11; assay: as above
Experimental: as §1, §2

[3] = target: T3, cynomolgus IL-11; assay: as above
Experimental: as §1, §2

[4] = target: T4, human IL2Ra; assay: ELISA on coated IL2Ra, signal ratio to isotype control TPP-10159 at 3.3E-7 M antibody
Experimental: IL2RA (Peprotech, Germany, #200-02RC) was coated at 1 or 0 μg/ml (buffer only control) in 30 μl coating buffer (Candor, #113500) per well on a 384 well microtiter plate (Maxisorb, Nunc, #460518) over night at 4-8° C. After two washes with 50 μl/well washing buffer (PBS+0.05% Tween, pH 7.4), the plates were incubated for two hours at room temperature with 50 μl/well SmartBlock (Candor, #113500). After blocking, the plates were washed three times with washing buffer. Then, a dilution series of the respective antibody (1E-7 [M] down to 2E-13 [M]) in PBS+0.05% Tween, 10% SmartBlock were added in 30 μl to the microtiter plate and incubated for 90 min at room temperature. After three additional washes, 30 μl anti mouse IgG HRP-conjugated antibody (Biotechne, HAF007), diluted 1:1000 in PBS+0.05% Tween (pH 7.4), were added per well and incubated for one hour. After three additional washes, a mixture of Amplex red (Invitrogen, #12222, 10 mM stock solution in DMSO) 1:1000 diluted in PBS and H2O2 (30%, Merck, #107209)) diluted 1:10000 in PBS were added as substrate with 30 μl per well and incubated for 20 min in the dark. Relative fluorescence was measured with a microtiter plate reader at 535/590 nm.
IgG converted antibodies TPP-were tested for binding to IL2Ra as described in Example 20. The ratios of the signals obtained at an antibody concentration of 3.3E-7 [M] for IgG converted antibody versus the isotype control TPP-10159 were calculated and are shown in Table E22.

Binder | Kd [1] [nM] | Kd [2] [nM] | Kd [3] [nM] | Antibody/Isotype Control Ratio of IL-2Ra Binding Signals [4] [ratio]
TPP-29697 (bispecific antibody, IgG1, scFv-kih-hIgG1 with Fc-silencing mutations; bispecific comprising CDRs of TPP-29528 and TPP-29519) chain 1: QVQLVESGGGVVQPGRSLRLSCAASGFTFSHYDMHWVRQAPGKGLEWVAVISYHGSVKFYADSVKGRFTISRDNSKNTLYLQMNSLRAEDTAVYYCARTPGFHFDYWGQGTLVTVSSGGGGSGGGGSGGGGSQSVLTQPPSASGTPGQRVTISCSGSSSNIGSNYVSWYQQLPGTAPKLLIYYDDLRPSGVPDRFSGSKSGTSASLAISGLRSEDEADYYCSAWDDSLSGVVFGGGTKLTVLGGGGSGGGGSGGGGSGVECPPCPAPPVAGPSVFLFPPKPKDTLMISRTPEVTCVVVGVSHEDPEVKFNWYVDGVEVHNAKTKPREEQYNSTYRVVSVLTVLHQDWLNGKEYKCKVSNKQLPSPIEKTISKAKGQPREPQVYTLPPCRDELTKNQVSLWCLVKGFYPSDIAVEWESNGQPENNYKTTPPVLDSDGSFFLYSKLTVDKSRWQQGNVFSCSVMHEALHNHYTQKSLSLSPGK chain 2: EVQLLESGGGLVQPGGSLRLSCAASGFTFSSYGMHWVRQAPGKGLEWVAVISYDGSYKYYADSVKGRFTISRDNSKNTLYLQMNSLRAEDTAVYYCAAGVPDYWGQGTLVTVSSGGGGSGGGGSGGGGSQSVLTQPPSASGTPGQRVTISCSGSSSNIGSDYDVHWYQQLPGTAPKLLIYSNEERPSGVPDRFSGSKSGTSASLAISGLRSEDEADYYCSAWDSSLSGPVFGGGTKLTVLGGGGSGGGGSGGGGSGVECPPCPAPPVAGPSVFLFPPKPKDTLMISRTPEVTCVVVGVSHEDPEVKFNWYVDGVEVHNAKTKPREEQYNSTYRVVSVLTVLHQDWLNGKEYKCKVSNKQLPSPIEKTISKAKGQPREPQVCTLPPSRDELTKNQVSLSCAVKGFYPSDIAVEWESNGQPENNYKTTPPVLDSDGSFFLVSKLTVDKSRWQQGNVFSCSVMHEALHNHYTQKSLSLSPGK | < 0.001 | < 0.001 | < 0.001 | 
TPP-29603 (bispecific antibody, IgG1, scFv-kih-mIgG1; bispecific comprising CDRs of TPP-29528 and TPP-29519) chain 1: QVQLVESGGGVVQPGRSLRLSCAASGFTFSHYDMHWVRQAPGKGLEWVAVISYHGSVKFYADSVKGRFTISRDNSKNTLYLQMNSLRAEDTAVYYCARTPGFHFDYWGQGTLVTVSSGGGGSGGGGSGGGGSQSVLTQPPSASGTPGQRVTISCSGSSSNIGSNYVSWYQQLPGTAPKLLIYYDDLRPSGVPDRFSGSKSGTSASLAISGLRSEDEADYYCSAWDDSLSGVVFGGGTKLTVLGGGGSGGGGSGGGGSGVECPPCPAPPVAGPSVFIFPPKPKDVLTITLTPKVTCVVVDISKDDPEVQFSWFVDDVEVHTAQTQPREEQFNSTFRSVSELPIMHQDWLNGKEFKCRVNSAAFPAPIEKTISKTKGRPKAPQVYTIPPCKEQMAKDKVSLWCMITDFFPEDITVEWQWNGQPAENYKNTQPIMDTDGSYFVYSKLNVQKSNWEAGNTFTCSVLHEGLHNHHTEKSLSHSPGK chain 2: EVQLLESGGGLVQPGGSLRLSCAASGFTFSSYGMHWVRQAPGKGLEWVAVISYDGSYKYYADSVKGRFTISRDNSKNTLYLQMNSLRAEDTAVYYCAAGVPDYWGQGTLVTVSSGGGGSGGGGSGGGGSQSVLTQPPSASGTPGQRVTISCSGSSSNIGSDYDVHWYQQLPGTAPKLLIYSNEERPSGVPDRFSGSKSGTSASLAISGLRSEDEADYYCSAWDSSLSGPVFGGGTKLTVLGGGGSGGGGSGGGGSGVECPPCPAPPVAGPSVFIFPPKPKDVLTITLTPKVTCVVVDISKDDPEVQFSWFVDDVEVHTAQTQPREEQFNSTFRSVSELPIMHQDWLNGKEFKCRVNSAAFPAPIEKTISKTKGRPKAPQVCTIPPPKEQMAKDKVSLSCAITDFFPEDITVEWQWNGQPAENYKNTQPIMDTDGSYFVVSKLNVQKSNWEAGNTFTCSVLHEGLHNHHTEKSLSHSPGK | 0.0034 | 0.0019 | 0.0022 | 
TPP-18087 (antibody, mouse IgG1, V domains shown, mIgG1, Lambda) VH: EVQLLESGGGLVQPGGSLRLSCAASGFTFSHYDMNWLRQAPGKGLEWVGVISYDGSNKFYADFVKGRFTISRDNSKNTLYLQMNSLRAEDTAVYYCARTPGSHFDYWGQGTLVTVSS VL: QSVLTQPPSASGTPGQRVTISCSGSSSNIGNNAVNWYQQLPGTAPKLLIYYDDLLPSGVPDRFSGSKSGTSASLAISGLRSEDEADYYCSAWDDSLNGVVFGGGTKLTVLG |  |  |  | 0.6
TPP-18068 (antibody, mouse IgG1, mIgG1, Lambda) heavy: EVQLLESGGGLVQPGGSLRLSCAASGFTFSSYGMHWVRQAPGKGLEWVSVISYDGSYKYYADSVKGRFTISRDNSKNTLYLQMNSLRAEDTAVYYCAAGVPDYWGQGTLVTVSSAKTTPPSVYPLAPGSAAQTNSMVTLGCLVKGYFPEPVTVTWNSGSLSSGVHTFPAVLQSDLYTLSSSVTVPSSTWPSETVTCNVAHPASSTKVDKKIVPRDCGCKPCICTVPEVSSVFIFPPKPKDVLTITLTPKVTCVVVDISKDDPEVQFSWFVDDVEVHTAQTQPREEQFNSTFRSVSELPIMHQDWLNGKEFKCRVNSAAFPAPIEKTISKTKGRPKAPQVYTIPPPKEQMAKDKVSLTCMITDFFPEDITVEWQWNGQPAENYKNTQPIMDTDGSYFVYSKLNVQKSNWEAGNTFTCSVLHEGLHNHHTEKSLSHSPGK light: QSVLTQPPSASGTPGQRVTISCTGSSSNIGAGYDVHWYQQLPGTAPKLLIYSNNERPSGVPDRFSGSKSGTSASLAISGLRSEDEADYYCAAWDDSLNGPVFGGGTKLTVLGQPKSSPSVTLFPPSSEELETNKATLVCTITDFYPGVVTVDWKVDGTPVTQGMETTQPSKQSNNKYMASSYLTLTARAWERHSSYSCQVTHEGHTVEKSLSRADCS | 0.58 |  | 5 | 377
TPP-29528 (antibody, mouse IgG1, mIgG1, Lambda) heavy: EVQLLESGGGLVQPGGSLRLSCAASGFTFSSYGMHWVRQAPGKGLEWVAVISYDGSYKYYADSVKGRFTISRDNSKNTLYLQMNSLRAEDTAVYYCAAGVPDYWGQGTLVTVSSAKTTPPSVYPLAPGSAAQTNSMVTLGCLVKGYFPEPVTVTWNSGSLSSGVHTFPAVLQSDLYTLSSSVTVPSSTWPSETVTCNVAHPASSTKVDKKIVPRDCGCKPCICTVPEVSSVFIFPPKPKDVLTITLTPKVTCVVVDISKDDPEVQFSWFVDDVEVHTAQTQPREEQFNSTFRSVSELPIMHQDWLNGKEFKCRVNSAAFPAPIEKTISKTKGRPKAPQVYTIPPPKEQMAKDKVSLTCMITDFFPEDITVEWQWNGQPAENYKNTQPIMDTDGSYFVYSKLNVQKSNWEAGNTFTCSVLHEGLHNHHTEKSLSHSPGK light: QSVLTQPPSASGTPGQRVTISCSGSSSNIGSDYDVHWYQQLPGTAPKLLIYSNEERPSGVPDRFSGSKSGTSASLAISGLRSEDEADYYCSAWDSSLSGPVFGGGTKLTVLGQPKSSPSVTLFPPSSEELETNKATLVCTITDFYPGVVTVDWKVDGTPVTQGMETTQPSKQSNNKYMASSYLTLTARAWERHSSYSCQVTHEGHTVEKSLSRADCS | 0.33 | 0.34 | 0.2 | 24.2

Reference: patent US20240317847A1 (Bayer, published 2024)
